Reference: patent US20240083984A1, “DOSING AND SCHEDULING REGIMEN FOR BROADLY NEUTRALIZING ANTIBODIES” (priority 2022, published 2024)

Assays:
[1] = Phase 1b study GS-US-536-5816: pharmacokinetics of TAB, ZAB and LEN; conditions: single dose; through Week 26
[2] = Phase 1b study GS-US-536-5816: safety (adverse events)
Description: Participants were monitored clinically with plasma HIV-1 RNA every four weeks until the primary endpoint at Week 26. The primary endpoint was safety; secondary endpoints included virologic outcomes by FDA Snapshot analysis.

HIV = experiment: PK-PD viral dynamic model and simulations of viral rebound during ATI; parameters: species or system human; conditions: in vivo, PK-PD model
Description: Population PK and PK-PD models were developed using a nonlinear mixed-effect modeling approach based on serum bNAb concentration and/or viral dynamic data from 6 efficacy studies in people with HIV, and 3 PK studies of 3BNC117/TAB (GS-5423) and/or 10-1074/ZAB (GS-2872) (Table 4).
bNAb concentrations were measured by ELISA assays, except for study NCT03526848 (Gaebler, et al. Nature. 2022; 606:368-374). For this study, concentrations measured by TZM-bl assay (Sarzotti-Kelsoe, et al. J Immunol Methods. 2014; 409:131-146) were transformed to ELISA data using a log-linear correlation model calibrated based on data from study NCT02825797 (Mendoza, et al. Nature. 2018; 561:479-484; Bar-On Y, et al. Nat Med. 2018; 24:1701-1707) where PK was measured using both methods. The PK data of the bNAbs were modeled by 2-compartment linear PK models. Covariates (demographics, disease status, combination treatment) were tested using stepwise forward addition (α=0.01) and backward elimination (α=0.001) methods. The PK-PD model describes viral replication using a logistic growth function and viral elimination using first-order kinetics, with a nonlinear saturable (Emax) model to describe the relationship between bNAb concentrations and viral elimination rates. […]

[3] = Population PK modeling and simulation of GS-5423 and GS-2872, flat vs weight-based dosing every 6 months; parameters: species or system human
Description: TAB and ZAB serum concentrations were measured using validated […]-electrochemiluminescence immunoassays. A two-compartment population PK model was developed to describe the PK data of GS-5423 and GS-2872 following IV and SC administration in HIV− and HIV+ participants. See, Joel S. Owen, Jill Fiedler-Kelly, “Introduction to Population Pharmacokinetic/Pharmacodynamic Analysis with Nonlinear Mixed Effects Models”, Wiley; 1st edition, 2014 (ISBN: 9780470582299). PopPK models of TAB and ZAB were developed using nonlinear mixed-effect modeling. Covariate analyses were performed to identify significant covariates, including body weight, effects of demographics, baseline characteristics, combination regimen, and disease status, on the PK parameters of GS-5423 and GS-2872. The population PK models were simulated to predict the PK profiles of GS-5423 and GS-2872 following IV administration of 30 or 10 mg/kg body weight normalized dosing or equivalent flat doses every 6 months. Model simulations were performed to predict the concentrations of TAB and ZAB following flat vs weight-based dosing.

[4] = in vivo, cited from earlier work

CC(C)(C#Cc1ccc(-c2ccc(Cl)c3c(NS(C)(=O)=O)nn(CC(F)(F)F)c23)c([C@H](Cc2cc(F)cc(F)c2)NC(=O)Cn2nc(C(F)(F)F)c3c2C(F)(F)[C@@H]2C[C@H]32)n1)S(C)(=O)=O [lenacapavir]
therapeutic concentrations [1]: maintained through Week 26
injection site reactions related to subcutaneous administration ([2]; 17/20 patients, LEN 927 mg SC): 85%
participants with grade 3 AEs ([2]; injection site cellulitis and injection site erythema at site of LEN injection): Two participants

zinlirvimab: anti-HIV gp120 V3 glycan-binding bNAb; 10-1074 with M428L and N434S (LS) Fc substitutions; heavy and light chains SEQ ID NOs: 433 and 434
therapeutic concentrations [1]: maintained through Week 26
estimated mean serum concentration corresponding to 50% maximum drug effect (EC50) (HIV): 32.2 µg/mL
tolerability ([2]; up to 30 mg/kg alone or in combination, GS-US-536-5816 and previous studies in HIV+ participants): well-tolerated
clearance in viremic PWH compared with those suppressed at baseline ([3]; PopPK covariate analysis): significant increase in the clearance
effect of increased body weight on PK parameters ([3]; PopPK covariate analysis in PWH): increased volume of distribution and clearance
non-solicited AEs within 4 weeks of IP administration ([4]; ip): 33.7%
Grade 3 AE: decrease in hemoglobin [4]: 1%
Grade 3 AE: elevated blood pressure [4]: 4%
Grade 3 AE: increased left-sided weakness [4]: 1%
Grade 3 AE: nephrolithiasis [4]: 1%
Grade 3 AE: proteinuria [4]: 1%
most common AE: localized musculoskeletal pain [4]: 8%
most common AE: symptoms of gastroenteritis [4]: 8%
most common AE: upper respiratory infections [4]: 25%
non-solicited AEs of Grade 3 severity [4]: 9.3%
non-solicited AEs of grade 2 severity [4]: 11.6%
non-solicited AEs reported (number) [4]: 86
solicited AE: erythema/skin discoloration at the administration site [4]: 8%
solicited AE: feverishness [4]: 4%
solicited AE: headache [4]: 4%
solicited AE: induration at the administration site [4]: 2%
solicited AE: malaise/fatigue [4]: 3%
solicited AE: myalgia [4]: 1%
solicited AE: pain at the administration site [4]: 4%
solicited AEs reported (number) [4]: 20
